# Data from the supplement of paper PMC10567573.
# B1: MTMR15 (parent)
# chain: FSPDFTLRNTLKSTSEDSLVKQEC
# Variants of: B1
# Assay: protein stability index of a GFP-peptide fusion (GPS, HEK-293T) (PSI 1-6); higher = more stable
# Conditions: c terminus: a fixed tail appended
# 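Further: lentivirally expressed fusions sorted by FACS into six bins by GFP to DsRed ratio, PSI derived from sequencing read proportions per bin multiplied by bin number.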
row,Variant,protein stability index
1,FSPDFTLRNTLKSTPEDSLVKQEC [S15P],1.83
2,FSPDFTLRNTLKSTGEDSLVKQEC [S15G],2.33
3,FSPDFTLRNTLKSTHEDSLVKQEC [S15H],1.93
4,FSPDFTLRNTLKSTQEDSLVKQEC [S15Q],1.84
5,FSPDFTLRNTLKSTIEDSLVKQEC [S15I],1.73
6,FSPDFTLRNTLKSTLEDSLVKQEC [S15L],1.96
7,FSYDFTLRNTLKSTSEDSLVKQEC [P3Y],2.76
8,FSGDFTLRNTLKSTSEDSLVKQEC [P3G],2.27
9,FSVDFTLRNTLKSTSEDSLVKQEC [P3V],2.58
10,FSADFTLRNTLKSTSEDSLVKQEC [P3A],1.97
11,FSSDFTLRNTLKSTSEDSLVKQEC [P3S],2.67
12,FSDDFTLRNTLKSTSEDSLVKQEC [P3D],3.91
13,FSHDFTLRNTLKSTSEDSLVKQEC [P3H],3.05
14,FSQDFTLRNTLKSTSEDSLVKQEC [P3Q],2.83
15,FSFDFTLRNTLKSTSEDSLVKQEC [P3F],2.83
16,FSPDFTLRNTLKSTSEDMLVKQEC [S18M],2.37
17,FSPDFTLRNTLKSTSEDWLVKQEC [S18W],1.75
18,FSPDFTLRNTLKSTSEDELVKQEC [S18E],2.02
19,FSPDFTLRNTLKSTSEDKLVKQEC [S18K],2.17
20,FSPDFTLRNTLKSTSEDHLVKQEC [S18H],1.92
21,FSPDFTLRNTLKSTSEDQLVKQEC [S18Q],2.01
22,FSPDFTLRNTLKSTSEDALVKQEC [S18A],1.75
23,FSPSFTLRNTLKSTSEDSLVKQEC [D4S],1.9
24,FSPQFTLRNTLKSTSEDSLVKQEC [D4Q],1.45

row,Variant,protein stability index
1,FSPRFTLRNTLKSTSEDSLVKQEC [D4R],2.65
2,FSPTFTLRNTLKSTSEDSLVKQEC [D4T],2.07
3,FSPAFTLRNTLKSTSEDSLVKQEC [D4A],2.44
4,FSPLFTLRNTLKSTSEDSLVKQEC [D4L],1.94
5,FSPEFTLRNTLKSTSEDSLVKQEC [D4E],1.94
6,FSPHFTLRNTLKSTSEDSLVKQEC [D4H],1.95
7,FSPNFTLRNTLKSTSEDSLVKQEC [D4N],2.23
8,FSPDFCLRNTLKSTSEDSLVKQEC [T6C],2.73
9,FSPDFPLRNTLKSTSEDSLVKQEC [T6P],1.92
10,FSPDFYLRNTLKSTSEDSLVKQEC [T6Y],2.46
11,FSPDFILRNTLKSTSEDSLVKQEC [T6I],3.13
12,FSPDFHLRNTLKSTSEDSLVKQEC [T6H],1.45
13,FSPDFKLRNTLKSTSEDSLVKQEC [T6K],2.01
14,FSPDFQLRNTLKSTSEDSLVKQEC [T6Q],2.24
15,FSPDFLLRNTLKSTSEDSLVKQEC [T6L],2.8
16,FSPDFMLRNTLKSTSEDSLVKQEC [T6M],1.92
17,FSPDFTLRNTLKSESEDSLVKQEC [T14E],2.64
18,FSPDFTLRNTLKSVSEDSLVKQEC [T14V],2.43
19,FSPDFTLRNTLKSYSEDSLVKQEC [T14Y],1.72
20,FSPDFTLRNTLKSHSEDSLVKQEC [T14H],1.96
21,FSPDFTLRNTLKSNSEDSLVKQEC [T14N],2.11
22,FSPDFTLRNTLKSCSEDSLVKQEC [T14C],2.78
23,FSPDFTLRNTLKSWSEDSLVKQEC [T14W],1.58
24,FSPDFTLRNTLKSRSEDSLVKQEC [T14R],1.77

row,Variant,protein stability index
1,FSPDFTLRNTLKSTSEDSLAKQEC [V20A],2.09
2,FSPDFTLRNTLKSTSEDSLPKQEC [V20P],2.44
3,FSPDFTLRNTLKSTSEDSLWKQEC [V20W],2.12
4,FSPDFTLRNTLKSTSEDSLYKQEC [V20Y],2
5,FSPDFTLRNTLKSTSEDSLGKQEC [V20G],1.78
6,FSPDFTLRNTLKSTSEDSLEKQEC [V20E],2.12
7,FSPDFTLRNTLKSTSEDSLHKQEC [V20H],2.19
8,FSPDFTLRNTLKSTSEDSLRKQEC [V20R],2.21
9,FSPDFTLRNTLKSTSEDSLVKAEC [Q22A],1.56
10,FSPDFTLRNTLKSTSEDSLVKEEC [Q22E],2.15
11,FSPDFTLRNTLKSTSEDSLVKWEC [Q22W],2.08
12,FSPDFTLRNTLKSTSEDSLVKNEC [Q22N],2.02
13,FSPDFTLRNTLKSTSEDSLVKTEC [Q22T],2.42
14,FSPDFTLRNTLKSTSEDSLVKFEC [Q22F],2.65
15,FSPDFTLRNTLKSTSEDSLVKGEC [Q22G],2.31
16,FSPDFTLRNTLKSTSEDSLVKIEC [Q22I],2.06
17,FSPDFTLRNTLKSTSEDSLVKMEC [Q22M],1.65
18,FSPDFTLRNTLKITSEDSLVKQEC [S13I],2.56
19,FSPDFTLRNTLKVTSEDSLVKQEC [S13V],1.97
20,FSPDFTLRNTLKDTSEDSLVKQEC [S13D],2.02
21,FSPDFTLRNTLKPTSEDSLVKQEC [S13P],2.12
22,FSPDFTLRNTLKKTSEDSLVKQEC [S13K],1.58
23,FSPDFTLRNTLKNTSEDSLVKQEC [S13N],2.69
24,FSPDSTLRNTLKSTSEDSLVKQEC [F5S],3.19

row,Variant,protein stability index
1,FSPDVTLRNTLKSTSEDSLVKQEC [F5V],3.56
2,FSPDATLRNTLKSTSEDSLVKQEC [F5A],3.75
3,FSPDRTLRNTLKSTSEDSLVKQEC [F5R],3.26
4,FSPDITLRNTLKSTSEDSLVKQEC [F5I],3.65
5,FSPDDTLRNTLKSTSEDSLVKQEC [F5D],4.35
6,FSPDHTLRNTLKSTSEDSLVKQEC [F5H],3.52
7,FSPDCTLRNTLKSTSEDSLVKQEC [F5C],3.42
8,FVPDFTLRNTLKSTSEDSLVKQEC [S2V],2.88
9,FCPDFTLRNTLKSTSEDSLVKQEC [S2C],2.19
10,FMPDFTLRNTLKSTSEDSLVKQEC [S2M],3.69
11,FGPDFTLRNTLKSTSEDSLVKQEC [S2G],2.48
12,FYPDFTLRNTLKSTSEDSLVKQEC [S2Y],4.52
13,FEPDFTLRNTLKSTSEDSLVKQEC [S2E],4.8
14,FLPDFTLRNTLKSTSEDSLVKQEC [S2L],3.19
15,FQPDFTLRNTLKSTSEDSLVKQEC [S2Q],3.32
16,FSPDFTLWNTLKSTSEDSLVKQEC [R8W],2.17
17,FSPDFTLFNTLKSTSEDSLVKQEC [R8F],1.89
18,FSPDFTLSNTLKSTSEDSLVKQEC [R8S],1.9
19,FSPDFTLKNTLKSTSEDSLVKQEC [R8K],1.7
20,FSPDFTLGNTLKSTSEDSLVKQEC [R8G],1.79
21,FSPDFTLCNTLKSTSEDSLVKQEC [R8C],2.75
22,FSPDFTLYNTLKSTSEDSLVKQEC [R8Y],2.44
